The record followed here is patent publication US20210403579A1 (DELINIA, published 2021).

Substitutions are numbered along the chain they refer to.

For one test, the target named is T1, Mouse ST2 (mouse, UniProt P14719 27-332, limits assumed).
T1 construct: also called mouse ST2 protein
T1 sequence (looked up): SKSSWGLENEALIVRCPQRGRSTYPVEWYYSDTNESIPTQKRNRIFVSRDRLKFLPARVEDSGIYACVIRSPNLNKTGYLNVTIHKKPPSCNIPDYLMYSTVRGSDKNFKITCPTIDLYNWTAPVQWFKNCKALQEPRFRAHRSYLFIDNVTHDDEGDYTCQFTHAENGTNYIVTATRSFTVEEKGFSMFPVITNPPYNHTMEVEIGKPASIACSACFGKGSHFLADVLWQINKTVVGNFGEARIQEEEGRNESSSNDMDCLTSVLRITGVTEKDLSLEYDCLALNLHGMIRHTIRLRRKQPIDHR
The test is described as follows: SPR (Carterra), antibody immobilized, ST2 analyte, 1:1. As to the method:
(§1) Binding of the reformatted human ST2 antibodies to the human and mouse ST2 proteins was evaluated by surface plasmon resonance (SPR), using a high throughput antibody screening and characterization platform from Carterra (Salt Lake City, Utah).

The next test addresses T2, Human ST2 (human, UniProt Q01638 19-328, limits assumed).
T2 construct: also called human ST2 protein; Interleukin 1 receptor-like 1
T2 sequence (looked up): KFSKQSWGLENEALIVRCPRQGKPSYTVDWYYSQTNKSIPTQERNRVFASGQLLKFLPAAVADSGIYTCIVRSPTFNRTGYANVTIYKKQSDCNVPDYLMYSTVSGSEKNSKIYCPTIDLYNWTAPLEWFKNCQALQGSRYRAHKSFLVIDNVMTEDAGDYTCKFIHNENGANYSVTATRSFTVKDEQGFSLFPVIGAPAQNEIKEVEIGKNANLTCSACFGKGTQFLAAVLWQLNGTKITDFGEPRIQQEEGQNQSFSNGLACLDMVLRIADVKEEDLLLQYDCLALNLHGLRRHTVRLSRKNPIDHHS
The test is described as follows: SPR (Carterra), antibody immobilized, ST2 analyte. As for the experimental part:
as §1

B1: Human ST2 IgG1 Antibody 20 (antibody, V domains shown)
VH: EVQLLESGAEVKKPGSSVKVSCKASGGTFSSYAISWVRQAPGQGLEWMGGIIPIFGTANYAQKFQGRVTITADESTSTAYMELSSLRSEDTAVYYCASGFYSNDLYYYYYMDVWGKGTTVTVSS
VL: DIQMTQSPSSLSASVGDRVTITCRASQSISSWLAWYQQKPGKAPKLLIYDASNLKTGVPSRFSGSGSGTDFTLTISSLQPEDFATYYCQQTYAIPLTFGGGTKVEIKR
notes: IgG1, kappa; also called ST2 Antibody 20
B1: in the test with Mouse ST2, the Kd – broadly, the free concentration of one partner at which half of the binding sites on the other are occupied at equilibrium, for simple one-to-one binding – worked out at 2200 nM; the koff (commonly a measure of how fast the partners let go of each other) turned out to be 0.17 s⁻¹; the kon (commonly the rate constant with which the complex forms) came out at 77000 M⁻¹ s⁻¹.

B2: Human ST2 IgG1 Antibody 21 (antibody, V domains shown)
VH: QVQLVQSGAEVKKPGASVKVSCKASGYTFSNHYMHWVRQAPGQGLEWMGWVNPTSGNTGYAQKFQGRVTMTRDTSTSTVYMELSSLRSEDTAVYYCARDLGVTYFDLWGRGTLVTVSS
VL: B1 VL with S28G, D50E, N53H, K55E, Q89L, T91D, A93N, I94Y
notes: IgG1, kappa; also called ST2 Antibody 21
Take B2: in the test with Mouse ST2, the affinity, expressed as Kd, was 999 nM; the koff came to 0.0085 s⁻¹; the kon was found to be 8500 M⁻¹ s⁻¹.

B3: Human ST2 IgG1 Antibody 29 (antibody, V domains shown)
VH: QVQLVQSGAEVKKPGASVKVSCKASGGTFTGYFIHWVRQAPGQGLEWMGWMNPNSGNTGYAQKFQGRVTMTRDTSTSTVYMELSSLRSEDTAMYYCAREGQGVVPVDYWGQGTLVTVSS
VL: B1 VL with S52T, K55E, Q89L, T91D, A93N, I94Y, G100Q, G101S
notes: IgG1, kappa; also called ST2 Antibody 29
In the test with Mouse ST2, B3 returned a Kd of 751 nM, a koff of 0.0045 s⁻¹ and a kon of 5900 M⁻¹ s⁻¹.

B4: Human ST2 IgG1 Antibody 94 (antibody, V domains shown)
VH: QVQLVQSGAEVKKPGSSVKVSCKASGGILNSYAITWVRQAPGQGLEWMGRIIPILGIANYAQKFQGRVTITADESTSTAYMELSSLRSEDTAVYYCVENESGPLFDYWGQGTLVTVSS
VL: EIVMTQSPATLSVSPGERATLSCRASQSVYSSYLAWYQQKPGQAPRLLIYGTSSRAAGIPARFSGSGSGTEFTLTISSLQSEDFAVYYCQQYYSTPYTFGQGTKVEIKR
notes: IgG1; also called ST2 Antibody 94
On to B4, for which, in the test with Human ST2, the affinity, expressed as Kd, was 483 nM; the koff came to 0.062 s⁻¹; the kon came to 130000 M⁻¹ s⁻¹.

B5: Human ST2 IgG1 Antibody 93 (antibody, V domains shown)
VH: QVQLVQSGAEVKKPGSSVKVSCKASGGTFSTYAISWVRQAPGQGLEWMGGIIPSFNAPSYAQKFQGRVTITADKSTSTAYMELSSLRSEDTAVYYCARVVPAAIVGWYFDLWGRGTLVTVSS
VL: DIVMTQSPLSLPVTPGEPASISCRSSQSLLHSNGYNYLDWYLQKPGQSPQLLIYAASTLQTGVPDRFSGSGSGTDFTLKISRVEAEDVGVYYCMQALQTPPTFGQGTKVEIKR
notes: IgG1; also called ST2 Antibody 93
As to B5, in the test with Human ST2, the affinity, expressed as Kd, was 728 nM; the off-rate constant (koff) came out at 0.11 s⁻¹; the kon worked out at 150000 M⁻¹ s⁻¹.

B6: Human ST2 IgG1 Antibody 30 (antibody, V domains shown)
VH: QVQLVQSGAEVKKPGSSVKVSCKASGYTFTTYGITWVRQAPGQGLEWMGGIIPIFGTANYAQKFQGRVTITADESTSTAYMELSSLRSEDTAVYYCAKLSGSSGSWDYYYYYGMDVWGQGTLVTVSS
VL: B5 VL with T58N, T61S, P101I, G106S, K108R, V109L
notes: IgG1, kappa; also called ST2 Antibody 30
In the test with Mouse ST2, B6 returned a Kd of 2700 nM, an off-rate (koff) of 0.13 s⁻¹ and a kon of 48000 M⁻¹ s⁻¹.

B7: Human ST2 IgG1 Antibody 95 (antibody, V domains shown)
VH: QVQLVQSGAEVKKPGSSVKVSCKASGYTFTSYGISWVRQAPGQGLEWMGGIIPIFGTANYAQKFQGRVTITADESTSTAYMELSSLRSEDTAVYYCARVMARRDGYNFKGGWYFDLWGRGTLVTVSS
VL: B5 VL with T58S, T61S, Q98E, V109L
notes: IgG1; also called ST2 Antibody 95
In the test with Human ST2, B7 yielded a Kd of 446 nM, a koff of 0.0086 s⁻¹ and a kon of 19000 M⁻¹ s⁻¹.

B8: Human ST2 IgG1 Antibody 96 (antibody, V domains shown)
VH: QVQLVQSGAEVKKPGSSVKVSCKASGFSFSTYGVAWVRQAPGQGLEWMGGFVPIIGSANYAQKFQGRVTITADESTSTAYMELSSLRSEDTAVYYCARDYGGNLDYWGQGTLVTVSS
VL: B5 VL with T58S, T61S, A96G, L97A, Q98H, T99W
notes: IgG1; also called ST2 Antibody 96
In the case of B8, in the test with Human ST2, the Kd amounted to 337 nM, the dissociation rate constant (koff) amounted to 0.097 s⁻¹ and the kon turned out to be 290000 M⁻¹ s⁻¹.

B9: Human ST2 IgG1 Antibody 92 (antibody, V domains shown)
VH: QVQLVQSGAEVKKPGSSVKVSCKASGGSFSGQAVNWVRQAPGQGLEWMGGFVSLFGTANYAQKFQGRVTITADESTSTAYMELSSLRSEDTAVYYCARDREGLGWYFDLWGRGTLVTVSS
VL: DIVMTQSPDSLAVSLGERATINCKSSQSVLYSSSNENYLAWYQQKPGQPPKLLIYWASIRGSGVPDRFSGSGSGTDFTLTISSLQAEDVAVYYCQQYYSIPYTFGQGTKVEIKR
notes: IgG1; also called ST2 Antibody 92
In the test with Human ST2, B9 gave a Kd of 662 nM, a koff of 0.13 s⁻¹ and a kon of 200000 M⁻¹ s⁻¹.

B10: Human ST2 IgG1 Antibody 25 (antibody, V domains shown)
VH: QVQLVQSGAEVKKPGSSVKVSCKASGGTFSNYAISWVRQAPGQGLEWMGWISAYNGNTNYAQKFQGRVTMTRDTSTSTVYMELSSLRSEDTAVYYCARSTNALDYWGQGTLVTVSS
VL: DIQMTQSPSSLSASVGDRVTITCRASQGIRSNLDWYQQKPGKAPKLLISIVSNLGSGVPSRFSGSGSGTDFTLTISSLQPEDFATYYCLQHNSNPPTFGGGTKVEIKR
notes: IgG1, kappa; also called ST2 Antibody 25
In the test with Mouse ST2, B10 had a Kd of 322 nM, an off-rate (koff) of 0.064 s⁻¹ and a kon of 200000 M⁻¹ s⁻¹.

B11: Human ST2 IgG1 Antibody 16 (antibody, V domains shown)
VH: QVQLVQSGAEVKKPGASVKVSCKASGYTFTSHYMHWVRQAPGQGLEWMGIINPSGGSTSYAQKFQGRVTMTRDTSTSTVYMELSSLRSEDTAVYYCARAGIGYLAAHDLYYYYGMDVWGRGTLVTVSS
VL: EIVMTQSPATLSVSPGERATLSCRASQSVSSNFAWYQQKPGQAPRLLIYGASTRATGIPARFSGSGSGTEFTLTISSLQSEDFAVYYCQQYYSTPYTFGQGTKVEIKR
notes: IgG1, kappa; also called ST2 Antibody 16
Regarding B11, in the test with Mouse ST2, the Kd was 315 nM, the koff came to 0.1 s⁻¹ and the kon stood at 320000 M⁻¹ s⁻¹.

B12: Human ST2 IgG1 Antibody 99 (antibody, V domains shown)
VH: EVQLLESGGGLVQPGGSLRLSCAASGFTFSDYYMNWVRQAPGKGLEWVSTISGFGESTFYADSVKGRFTISRDNSKNTLYLQMNSLRAEDTAVYYCARLGAARAFDIWGQGTTVTVSS
VL: DIQMTQSPSSLSASVGDRVTITCRASQSIGSWMAWYQQKPGKAPKLLIYAASTLQSGVPSRFSGSGSGTDFTLTISSLQPEDFATYYCQQSYTTPITFGPGTKVDIKR
notes: IgG1; also called ST2 Antibody 99
In the test with Human ST2, B12 showed a dissociation constant (Kd) of 192 nM, a koff of 0.089 s⁻¹ and a kon of 460000 M⁻¹ s⁻¹.

B13: Human ST2 IgG1 Antibody 91 (antibody, V domains shown)
VH: EVQLLESGGGLVKPGGSLRLSCAASGFTFSSYWMSWVRQAPGKGLEWVSVIYSGGSTYYADSVKGRFTISRDDSKNTLYLQMNSLKTEDTAVYYCARGLGWFDPWGQGTLVTVSS
VL: DIQMTQSPSSLSASVGDRVTITCQANQHIGNSLNWYQQKPGKAPKLLIFAASRLQSGVPSRFSGSGSGTDFTLTISSLQPEDFATYYCQQSYGTPLTFGGGTKVEIKR
notes: IgG1; also called ST2 Antibody 91
Regarding B13, in the test with Human ST2, the Kd is 256 nM, the koff is 0.041 s⁻¹ and the kon amounted to 160000 M⁻¹ s⁻¹.

B14: Human ST2 IgG1 Antibody 9 (antibody, V domains shown)
VH: EVQLLESGGGLVQPGGSLRLSCAASGFAFSSHWMHWVRQAPGKGLEWVATISSGSHSIHYADSVKGRFTISRDNSKNTLYLQMNSLRAEDTAVYYCAREAGTSYYYYGMDVWGKGTTVTVSS
VL: B13 VL with N26S, H28D, G30R, S32Y, F49Y, A50K, R53S, Q55E, G93S, L96P
notes: IgG1, kappa; also called ST2 Antibody 9
In the test with Mouse ST2, B14 showed a Kd of 351 nM, a koff of 0.032 s⁻¹ and a kon of 91000 M⁻¹ s⁻¹.

B15: Human ST2 IgG1 Antibody 98 (antibody, V domains shown)
VH: EVQLLESGGGLVKPGGSLRLSCAASGFTFSSYWMSWVRQAPGKGLEWVSAISGTAINTYYADSVKGRFTISRDDSKNTLYLQMNSLKTEDTAVYYCARVRRDSSGGGAFDIWGQGTMVTVSS
VL: DIQMTQSPSSLSASVGDRVTITCRASQGISNNLNWYQQKPGKAPKLLIYAASSLQTGVPSRFSGSGSGTDFTLTISSLQPEDFATYYCQQSYSTPPTFGQGTKVEIKR
notes: IgG1; also called ST2 Antibody 98
Consider B15, for which, in the test with Human ST2, the Kd came to 95 nM, the koff was found to be 0.025 s⁻¹ and the kon amounted to 270000 M⁻¹ s⁻¹.

B16: Human ST2 IgG1 Antibody 19 (antibody, V domains shown)
VH: EVQLLESGGGLVQPGGSLRLSCAASGFSFSHAWMSWVRQAPGKGLEWVSVIHSGGSTFYADSVKGRFTISRDNSKNTLYLQMNSLRAEDTAVYYCARIGKGGGFDYWGQGTLVTVSS
VL: B15 VL with G28D, S30G, N31S, N32W, N34A, T56S
notes: IgG1, kappa; also called ST2 Antibody 19
Take B16: in the test with Mouse ST2, the Kd came out at 311 nM, the koff is 0.11 s⁻¹ and the kon worked out at 370000 M⁻¹ s⁻¹.

B17: Human ST2 IgG1 Antibody 100 (antibody, V domains shown)
VH: EVQLLESGGGLVQPGGSLRLSCAASGFTFSNYAMAWVRQAPGKGLEWVSWISGSGSYIYYADSVKGRFTISRDNSKNTLYLQMNSLRAEDTAVYYCARRGSSWSNFDYWGQGTLVTVSS
VL: B15 VL with G28T, N31T, N32Y, A50D, S53N, Q55E, P96I
notes: IgG1; also called ST2 Antibody 100
Consider B17, for which, in the test with Human ST2, the affinity, expressed as Kd, was 342 nM; the koff was found to be 0.074 s⁻¹; the kon was determined as 220000 M⁻¹ s⁻¹.
